In a protein production outcome set (Wang et al. 2014) one finds protein production data, which are given here for six sequences.

The data set in a line: label from the status in PepcDB records.
Turning to “MKKILLSLITAAVLLSCQSSRDTSHKYTAITPGVEWLDTNNEKINAHGGGILYHEGIYYWYGECKSDSTYWNPNVPGWECYRTEAGGVNCYSSKDLLNWKYEGLVLQPEISDTQSDLHPSKVLERPKVIYNDKTKKFVMWLHVDSDDYNKAAAGVAVSDSPTGVFTYLGSMHPNGQISRDMTLFKDDDGKAYHIYSSEQNSTLYISLLSDDYLKPSGTFTRNFAGKFREAPAVFKHNGLYYVISSGCTGWSPNEAEYAVATQILGPWTVKGNPCVGKDADKTFYGQSTHVLPIQGKKDAYIAMFDKWNKTDLIHSTYIWLPIQFREDGSMAIQWLDSWSPDTYEF”, the protein production entry is on record as “failed”.

“MKKISIEERPDWRATAEREGFNFHTIDGERYWDERGYYLFTEQQITRDLEAPTQALHQMCMDAVARVVDSEELLHQLAIPPAFFDVIQTSWKQGHPHLYARFDFAYDGTGPAKMYEINADTPTSLMEAGAFQLLWLEEQMARGVLPAHASQFNSIAEDLVRAFAEFPGASPFYFAAMSGSVEDRVTTDFLRRMAAHVGIDARHIDIEDIGLNDQGRFVDLDGRWIERLFKLHAWEHIFHEAFGKNVTASGTQFVEPAWKAILSNKGILPLLWQFNEGHPNLLPSRVDQDVTKPVPKGWVRKPYFSREGANIEMRTPGDQVIAVDGPYTDAPYILQAYSPLPKFGDSYTLIGSWVIGDLASGIGIREDDSLITKDTSRFLPHVVID”: the protein production entry is “failed”.

On to “MKKKDRYTGHRYAKPNRSSENDIYSNSDRYARTTGNKKYKKRKKKWSAKKKIIVTLCIILGIILMIAGIVFAYIKATLSQLGRVPLPEAPETLGISSEVAEKYKDLDVTNIALFGVDSREDNDIGRSDALMILSIDRVHNKIKLTSIARDTYVTVDGYGQTKINHAYAYEGPELAIKTINENFDMNIQGFVTVNFSQLAEIIDYLGGINIAVTEEEREVANRLIQELGVQCEPITESGESVHLTGDQAVIFARNRDTGGDSERTGRQRKVLSAMFDQAKAIDVTQYPGLINMVLSQSVTSLSDNDMLGIGTWAVTSGATMEQMSLPNENCNSSGEIIDGVWYYVYDLDLATDLLHDFIYEENSAD”, for which the protein production entry was “failed”.

For the sequence “MKKKKIWALIWRKSAFRWLLISIFTAIIISACSYNVSKDENGKVKTVKSHFTPCYVVKHKMGETCVPQNPQRIVVLAQTTLANVLALGVKPIGILGADLPTYLQQARDIQVVGEGWEPDVEKILLLKPDLILGKEYHRTQYNTLSQIAPTVLLEWNGTPSWKQHLEDVAQVLNKTDQAKSLMRNYHQRLEEFKIKMGDRLKNLQISYIDILVGYIWCDVKNSFAGTILADAGLQHPSAQEVVTKGGYITFGLETMPMDADGDVIFTSHWMDEDGAKALKRNQNNPLWRKLKAVEQNQVYVVNRHFWRGSNILAAHKVIDDLFNYLVDAKS”, the protein production entry is recorded as “failed”.

Consider “MKKKQVLAVSSALMIGTTTALTGLPTPVMAQENTEVVQEAVVEENKTEQVPVEQKTENAEVQENITDKEQEETAENAETLKEESTKQETPATPEKEVVTEDKTVEASKNTEVKAGSIAIDETHFPDKVFREQIIAEFDKDGDSVLSVDEISKAQFLNLHGMKTISSLEGIQYLTNLQSLDVSTTSVSDLSPVKNSSLKRLDCRSSKVGSVDLTRYPNLEAFLCDNTSINSLDVSKNEKLNTLFADSTSISNLDVTNNPNLEQLSCSNTGLMELDVTHNPQLVTLDIGDTKVKTLDISKNPNLKQLSCYMTNIAELDVTKNTKLTRLFCHDTTIKKLDLSNNLELEMLRCGEIFEQGIRGLDISKNTKIKKLICDDLYWLNVGENKVLENNHAFVGNGYIDIKGNKIDLKKDVEQGIDISKVKVTANGTLDKDTGIITVDDVKKPVTYEYDCGTYKDGNVVLKVELSLNSQGEDNTAPTISANDVTLNVGDTFDPLANVTATDKEDGTITLTKDNIVANDVDTSKAGTYHVTYKVTDKNGASVKKTITVTVKQNTGDLNSAPIISANDVTLNVGDTFDPLANVTATDKEDGTIILTKDNIIANDVDTSKAGTYHVTFRVVDKNGAITEKTITVTVKEKATNKPVSPQQPQKPSKPTTPTKPSGQKNPVKTGDMTNVGLFTSMFAGSTGVLAVLFGKKRKRNKNN”, for which the protein production entry is given as “failed”.

Turning to “MKKLLLTVIQIALLFIFARLINWVTALLHINIPGSIIGIVILFTLLHFNIIKLEWIELGAAWLLGELLLFFIPSAVGVIEYGDIMSKFGVSILLVVIISTFVVMVSTGTLTQLIAKRKEKKHTCSSEL”, the protein production entry is on record as “failed”.
